{
  "source": "patent US8507443B2",
  "about": "“Anticancer agent” (The Research Foundation for Microbial Diseases of Osaka …, priority 2005, dated 2013)",
  "key": {"HB-EGF": {"biological_target": "HB-EGF (Homo sapiens, UniProt Q99075)", "sequence (Q99075 63-148)": "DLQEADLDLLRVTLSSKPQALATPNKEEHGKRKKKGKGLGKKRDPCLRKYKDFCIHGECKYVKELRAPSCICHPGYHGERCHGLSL", "assay": "Inhibition of binding of 125I-labeled diphtheria toxin to HB-EGF"}},
  "data": [
    {"substance": "GST-DT", "values": [
      {"measurement": "toxicity of diphtheria toxin", "setting": "Vero cells", "value": "do not have the toxicity of diphtheria toxin substantially"},
      {"measurement": "activity to inhibit the binding of HB-EGF to EGFR", "setting": "HB-EGF", "value": "inhibit the binding of HB-EGF to EGFR"},
      {"measurement": "inhibition of the binding of 125I-labeled diphtheria toxin to HB-EGF", "setting": "HB-EGF", "value": "in a dose dependent manner"}
    ]}
  ]
}
